# Test results reported in WO2009082624A2.
# Target: human IL-23 receptor (huIL-23R/huIL-12Rβ1) on Baf3/KZ134/huIL-23R/huIL-12Rβ1 Clone 6 cells (human) (UniProt P42701)
# Assay: cell-based or functional assay
# human IL-23 receptor (huIL-23R/huIL-12Rβ1) on Baf3/KZ134/huIL-23R/huIL-12Rβ1 Clone 6 cells (human), sequence (chain, as listed by the source, chain 1 of 2, other chains not shown): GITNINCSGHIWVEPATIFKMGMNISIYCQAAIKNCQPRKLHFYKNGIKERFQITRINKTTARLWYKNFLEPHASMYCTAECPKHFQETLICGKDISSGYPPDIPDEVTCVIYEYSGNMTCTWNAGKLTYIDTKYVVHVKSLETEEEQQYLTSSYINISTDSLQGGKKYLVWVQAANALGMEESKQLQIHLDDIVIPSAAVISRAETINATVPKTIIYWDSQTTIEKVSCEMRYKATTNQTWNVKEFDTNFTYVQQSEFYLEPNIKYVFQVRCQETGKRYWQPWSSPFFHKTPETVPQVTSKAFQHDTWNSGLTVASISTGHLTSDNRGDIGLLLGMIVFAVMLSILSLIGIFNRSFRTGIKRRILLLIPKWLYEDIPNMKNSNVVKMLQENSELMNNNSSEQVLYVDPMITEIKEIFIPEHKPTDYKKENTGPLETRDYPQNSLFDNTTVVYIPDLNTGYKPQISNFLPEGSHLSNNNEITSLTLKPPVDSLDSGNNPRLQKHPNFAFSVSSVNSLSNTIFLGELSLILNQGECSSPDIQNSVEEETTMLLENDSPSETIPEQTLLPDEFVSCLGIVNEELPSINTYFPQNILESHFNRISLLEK
substance,measurement,value
"human IL-23 (p19/p40 heterodimer), recombinant (from UniProt Q9NPF7 20-189; P29460 23-328) (ligand)","EC50, STAT3 phosphorylation in Baf3/KZ134/huIL-23R/huIL-12Rβ1 Clone 6 cells (ZymoGenetics IL-23)",0.02 nM
same,"EC50, STAT3 phosphorylation in Baf3/KZ134/huIL-23R/huIL-12Rβ1 Clone 6 cells (eBioscience IL-23)",0.03 nM
